Data from paper PMC7764910, “Structural Insight into the Contributions of the N-Terminus and Key Active-Site Residues to the Catalytic Efficiency of Glutamine Synthetase 2” (Biomolecules, 2020).

T1: DmGS2 (Drosophila melanogaster, UniProt P20478)
T1 construct: gene Gs2; 367 residues per monomer modelled
T1 sequence (P20478 1-369): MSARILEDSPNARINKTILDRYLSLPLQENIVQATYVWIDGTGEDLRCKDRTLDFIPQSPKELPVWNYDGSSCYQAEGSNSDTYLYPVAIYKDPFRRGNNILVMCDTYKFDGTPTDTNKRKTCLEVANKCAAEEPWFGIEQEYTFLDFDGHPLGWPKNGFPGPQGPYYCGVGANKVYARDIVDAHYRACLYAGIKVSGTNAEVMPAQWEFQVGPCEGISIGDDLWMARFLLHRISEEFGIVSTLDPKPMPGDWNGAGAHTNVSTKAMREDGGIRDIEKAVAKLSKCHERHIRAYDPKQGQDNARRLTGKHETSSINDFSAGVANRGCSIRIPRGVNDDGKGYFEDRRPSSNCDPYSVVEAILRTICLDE


Tests used:
[1] = molecular target: T1, DmGS2; test: X-ray crystal structure, […] Å; format: binding; settings: active site; crystallised with ATP and MgCl2, ADP found in all 10 monomers
[2] = substrate: N; test: purified protein; settings: saturating glutamate, 12 mM ATP, 50 mM MgCl2, 50 mM imidazole-HCl pH 7.0, 37 °C
[3] = substrate: NC(=O)CC[C@H](N)C(=O)O; test: purified protein; format: biochemical, Drosophila melanogaster; settings: saturating hydroxylamine, 3 mM MnCl2, 0.4 mM ADP, 20 mM potassium arsenate, 40 mM imidazole pH 7.9, 37 °C
[4] = substrate: N[C@@H](CCC(=O)O)C(=O)O; test: purified protein; format: biochemical, Drosophila melanogaster; settings: saturating NH4Cl, 12 mM ATP, 50 mM MgCl2, 50 mM imidazole-HCl pH 7.0, 37 °C
[5] = substrate: NO; test: purified protein; format: biochemical, Drosophila melanogaster; settings: saturating glutamine, 3 mM MnCl2, 0.4 mM ADP, 20 mM potassium arsenate, 40 mM imidazole pH 7.9, 37 °C
[6] = molecular target: the molecule itself; test: crystal structure; DmGS2 with ADP bound; protein 12 mg/mL in 20 mM Tris-HCl pH 7.9, 150 mM NaCl, 5 mM MgCl2, 5 mM ATP, 1 mM sodium 2-mercaptoethanesulphonate; hanging-drop vapor diffusion; 2.12 Å
[7] = molecular target: the molecule itself; test: AUC; sedimentation velocity, 20 °C, samples 500 μL at 1.0 mg/mL, absorbance at 280 nm, SEDFIT85

Molecule	X-ray crystal structure, 2.12 Å [1]	Km [2]	Vmax [2]	kcat [2]	kcat/Km [2]	Km [3]	Vmax [3]	kcat [3]	kcat/Km [3]	Km [4]	Vmax [4]	kcat [4]	kcat/Km [4]	Km [5]	Vmax [5]	stoichiometry N [6]	stoichiometry N [7]
Nc1ncnc2c1ncn2[C@@H]1O[C@H](COP(=O)(O)OP(=O)(O)O)[C@@H](O)[C@H]1O [ADP]	A structure was obtained for the DmGS2 decamer in complex with ADP																
DmGS2 (Drosophila melanogaster; P214A) (protein, 367 residues per monomer modelled) MSARILEDSPNARINKTILDRYLSLPLQENIVQATYVWIDGTGEDLRCKDRTLDFIPQSPKELPVWNYDGSSCYQAEGSNSDTYLYPVAIYKDPFRRGNNILVMCDTYKFDGTPTDTNKRKTCLEVANKCAAEEPWFGIEQEYTFLDFDGHPLGWPKNGFPGPQGPYYCGVGANKVYARDIVDAHYRACLYAGIKVSGTNAEVMPAQWEFQVGACEGISIGDDLWMARFLLHRISEEFGIVSTLDPKPMPGDWNGAGAHTNVSTKAMREDGGIRDIEKAVAKLSKCHERHIRAYDPKQGQDNARRLTGKHETSSINDFSAGVANRGCSIRIPRGVNDDGKGYFEDRRPSSNCDPYSVVEAILRTICLDE		0.11 ± 0.03 mM	5.5 µM/min	0.0183 s⁻¹	177 M⁻¹ s⁻¹	30.6 ± 6.1 mM	150 µM/min	0.5 ± 0.0333 s⁻¹	16.8 ± 2.33 M⁻¹ s⁻¹	6.8 ± 2.2 mM	10.6 µM/min	0.0355 ± 0.00183 s⁻¹	6.33 ± 2.17 M⁻¹ s⁻¹	1.5 ± 0.2 mM	88 µM/min		
Drosophila melanogaster glutamine synthetase 2 (DmGS2), wild type (enzyme, UniProt P20478 1-369, looked up, Glutamine synthetase 2, cytoplasmic (DmGS2), Drosophila melanogaster; full-length cDNA of mature DmGS2, GenBank X52759; residues numbered to 369; 367 residues of each monomer seen in the crystal; Decamer of two stacked pentamers in the crystal (with ADP); pentamer and decamer in solution by AUC; No removal of the tags is described; also called WT DmGS2; WT; copies: 10) MSARILEDSPNARINKTILDRYLSLPLQENIVQATYVWIDGTGEDLRCKDRTLDFIPQSPKELPVWNYDGSSCYQAEGSNSDTYLYPVAIYKDPFRRGNNILVMCDTYKFDGTPTDTNKRKTCLEVANKCAAEEPWFGIEQEYTFLDFDGHPLGWPKNGFPGPQGPYYCGVGANKVYARDIVDAHYRACLYAGIKVSGTNAEVMPAQWEFQVGPCEGISIGDDLWMARFLLHRISEEFGIVSTLDPKPMPGDWNGAGAHTNVSTKAMREDGGIRDIEKAVAKLSKCHERHIRAYDPKQGQDNARRLTGKHETSSINDFSAGVANRGCSIRIPRGVNDDGKGYFEDRRPSSNCDPYSVVEAILRTICLDE		0.47 ± 0.03 mM	4.6 µM/min	0.0153 s⁻¹	32.7 M⁻¹ s⁻¹	43.1 ± 9.7 mM	120 µM/min	0.4 ± 0.0333 s⁻¹	9.67 ± 1.33 M⁻¹ s⁻¹	5.9 ± 1.6 mM	9.2 µM/min	0.0307 ± 0.00133 s⁻¹	5.67 ± 1.33 M⁻¹ s⁻¹	2.0 ± 0.4 mM	64 µM/min	10	5
DmGS2 (Drosophila melanogaster; E311A) (protein, 367 residues per monomer modelled) MSARILEDSPNARINKTILDRYLSLPLQENIVQATYVWIDGTGEDLRCKDRTLDFIPQSPKELPVWNYDGSSCYQAEGSNSDTYLYPVAIYKDPFRRGNNILVMCDTYKFDGTPTDTNKRKTCLEVANKCAAEEPWFGIEQEYTFLDFDGHPLGWPKNGFPGPQGPYYCGVGANKVYARDIVDAHYRACLYAGIKVSGTNAEVMPAQWEFQVGPCEGISIGDDLWMARFLLHRISEEFGIVSTLDPKPMPGDWNGAGAHTNVSTKAMREDGGIRDIEKAVAKLSKCHERHIRAYDPKQGQDNARRLTGKHATSSINDFSAGVANRGCSIRIPRGVNDDGKGYFEDRRPSSNCDPYSVVEAILRTICLDE										26.2 ± 2.2 mM	5.5 µM/min	0.0183 ± 0.00133 s⁻¹	0.7 ± 0.00833 M⁻¹ s⁻¹				
